Measured values: patent US20190263904A1 (TENEOBIO, published 2019)

The binders below were run against T1, cynomolgus CD3 (cynomolgus, UniProt Q95LI5 22-198; Q95LI8 22-171) (assay: flow cytometry, parental monospecific anti-CD3 on cyno T-cells).
T1 construct: Rats were immunised with cynomolgus CD3-epsilon/delta constructs; also called CD3 protein of Cynomolgus macaque; non-human primate CD3 proteins
T1 sequence (Q95LI5 22-198, chain 1 of 2): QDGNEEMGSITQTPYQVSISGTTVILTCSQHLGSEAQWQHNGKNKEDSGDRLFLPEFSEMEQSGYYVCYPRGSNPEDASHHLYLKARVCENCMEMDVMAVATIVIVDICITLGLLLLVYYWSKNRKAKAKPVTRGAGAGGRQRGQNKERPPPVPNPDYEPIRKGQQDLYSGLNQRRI
T1 sequence (Q95LI8 22-171, chain 2 of 2): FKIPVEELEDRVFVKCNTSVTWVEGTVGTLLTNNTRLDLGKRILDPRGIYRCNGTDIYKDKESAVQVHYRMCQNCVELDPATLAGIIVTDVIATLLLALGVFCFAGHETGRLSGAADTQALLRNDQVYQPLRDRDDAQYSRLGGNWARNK

| Cyno T-cell bind (MFI) | Binder |
| --- | --- |
| 26.2 | anti-CD3 FlicAb ID 304703 (SEQ ID NO:39) (antibody, V domains shown, fully human IgG1 with the fixed kappa light chain) VH: QLQLQESGPGLVKPSQTLSLTCTVSGGSISSGGHYWSWIRQHPGKGLEWIGYIHYSGSTYYNPSLKSRVIISVDTSKNQFSLKLRSVTAADTAVYYCARWRHDIFAAYPYYYYGMDVWGQGTLVTVSS VL: not shown |
| 71.7 | anti-CD3 FlicAb ID 313306 (SEQ ID NO:1) (antibody, V domains shown, fully human IgG1 with the fixed kappa light chain; also called αCD3_F1F) VH: QLQLQESGPGLVKPSQTLSLTCSVSGGSIRSGGHYWSWIRQHPGKGLEWIGYIHHSGSTYYNPSLKSRVIISVDTSKNQFSLKLRSVTAADTAIYYCARWRHDIFTTYPYYYYGMDVWGQGTLVTVSS VL: not shown |
| 17.4 | anti-CD3 FlicAb ID 313329 (SEQ ID NO:6) (antibody, V domains shown, fully human IgG1 with the fixed kappa light chain) VH: QLQLQESGPGLVKPSETLSLTCTVSGGSISSGGHYWSWIRQHPGKGLEWIGYIHHSGSTNYNPSLKSRITISVDTSKNQFSLKVSSVTAADTAVYYCARWRHDIFAAYPYYYYGMDVWGQGTLVTVSS VL: not shown |
